From patent publication US20200102387A1 (CELGENE, published 2020)
Numbering of substitutions follows the chain as printed.

T1: cynomolgus SIRPα on cells (cynomolgus, UniProt P78324 31-373 (human entry))
T1 construct: also called cyno SIRPα-CHO; Cyno SIRPα-CHO-K1; not shown: Transmembrane and cytoplasmic region of cynomolgus SIRPα
T1 chain: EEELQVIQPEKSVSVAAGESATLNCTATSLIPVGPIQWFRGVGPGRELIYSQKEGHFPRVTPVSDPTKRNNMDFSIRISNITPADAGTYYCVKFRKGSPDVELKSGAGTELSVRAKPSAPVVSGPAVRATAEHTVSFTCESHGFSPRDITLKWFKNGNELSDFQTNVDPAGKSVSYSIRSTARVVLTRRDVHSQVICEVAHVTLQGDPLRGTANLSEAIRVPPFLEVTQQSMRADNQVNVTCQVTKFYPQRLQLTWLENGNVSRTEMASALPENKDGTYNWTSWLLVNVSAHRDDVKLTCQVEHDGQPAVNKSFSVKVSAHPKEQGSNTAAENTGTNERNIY

B1: SIRPAB-7 (antibody, human IgG1, kappa, V domains shown)
VH: QVQLQESGPGLVKPSQTLSLTCTVSGGSISSGEYYWEWIRQHPGKGLEWIGYIYSSGFTYYNPSLKSRVTISVDTSKNQFSLKLSSVTAADTAVYYCAREGLDGSYGSSAWGQGTLVTVSS
VL: DIQLTQSPSSLSASVGDRVTITCQASQDISNYLNWYQQKPGKAPKLLIYDASNLETGVPSRFSGSGSGTDFTFTISSLQPEDIATYYCQQFAYLPYTFGGGTKVEIKR
B2: SIRPAB-9 (antibody, human IgG1, kappa, V domains shown)
VH: QVQLVQSGAEVKKPGASVKVSCKASGYTFGGYGISWVRQAPGQGLEWMGWISAYGGETNYAQKLQGRVTMTTDTSTSTAYMELRSLRSDDTAVYYCAREAGSSWYDFDLWGRGTLVTVSS
VL: DIQMTQSPSSVSASVGDRVTITCRASQGISSWLAWYQQKPGKAPKLLIYAASNLQSGVPSRFSGSGSGTDFTLTISSLQPEDFATYYCQQGASFPITFGGGTKVEIKR
B3: SIRPAB-13 (antibody, human IgG1, kappa, V domains shown)
VH: B2 VH with G30H, G55S
VL: B2 VL
B4: SIRPAB-8 (antibody, human IgG1, kappa, V domains shown)
VH: B2 VH with G30T, G31S, A53P, G55N, E57N
VL: B2 VL
B5: SIRPAB-3 (antibody, human IgG1, kappa, V domains shown)
VH: QVQLQESGPGLVKPSQTLSLTCTVSGGSISSGGWYWQWIRQHPGKGLEWIGTIYYSGSTFYNPSLKSRVTISVDTSKNQFSLKLSSVTAADTAVYYCAREGYHSGMDVWGQGTTVTVSS
VL: B1 VL with L4M, E55A, Y96W
B6: SIRPAB-4 (antibody, human IgG1, kappa, V domains shown)
VH: B5 VH with G33S, W34P, Q37S, T52Y, Y55A, S58F, F60Y
VL: B1 VL with L4M, E55A, Y96W
B7: SIRPAB-5 (antibody, human IgG1, kappa, V domains shown)
VH: B5 VH with G33P, W34A, Q37S
VL: B1 VL with L4M, E55A, Y96W
B8: SIRPAB-1 (antibody, human IgG1, kappa, V domains shown)
VH: B5 VH with W34Y, Q37S, T52S, F60Y
VL: B1 VL with L4M, E55A, Y96W
B9: SIRPAB-2 (antibody, human IgG1, kappa, V domains shown)
VH: B5 VH with W34D, Q37A, T52Y, Y55P, S58F, F60Y
VL: B1 VL with L4M, E55A, Y96W
B10: SIRPAB-6 (antibody, human IgG1, kappa, V domains shown)
VH: B1 VH with E33G, E37S, S55Y, F58S
VL: B1 VL
B11: SIRPAB-18 (antibody, human IgG1, kappa, V domains shown)
VH: B5 VH with W34Y, Q37S, T52A, S58P, T59I, F60Y, A98S, R99K
VL: B1 VL with L4M, E55A, Y96W
B12: SIRPAB-20 (antibody, human IgG1, kappa, V domains shown)
VH: B5 VH with W34Y, Q37S, T52A, S58P, T59I, F60Y, A98S, R99K
VL: B1 VL with L4M, N31D, S52D, Y96W
B13: SIRPAB-19 (antibody, human IgG1, kappa, V domains shown)
VH: B5 VH with W34Y, Q37S, T52A, S58P, T59I, F60Y, A98S, R99K
VL: B1 VL with L4M, Q27D, N31D, L54I, T56D, Y96W

Target: T2, human SIRPα v3-Fc (SIRPα3 extracellular domain fused to human IGHG1_Fc) (human, UniProt P78324 31-373; P0DOX5 223-449 = IgG part)
T2 construct: as m38; also called V3 (e.g. SIRPα3)
Experiment: BLI Octet, antigen-Fc on biosensor;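 for koff: antigen captured on the biosensor tip and then immersed in solutions of the test antibodies, which act as the analyte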

| Kd | koff | kon | Binder |
| --- | --- | --- | --- |
| 10.2 nM | 0.00718 s⁻¹ | 702000 M⁻¹ s⁻¹ | B1 |
| 0.53 nM | 0.000515 s⁻¹ | 980000 M⁻¹ s⁻¹ | B2 |
| 0.83 nM | 0.000965 s⁻¹ | 1.17e+06 M⁻¹ s⁻¹ | B3 |
| 22.3 nM | 0.0226 s⁻¹ | 1.02e+06 M⁻¹ s⁻¹ | B4 |

Target: T3, human SIRPα v1-Fc (SIRPα1 extracellular domain fused to human IGHG1_Fc) (human, UniProt P78324 31-373; P0DOX5 223-449 = IgG part)
T3 construct: also called V1 (e.g. SIRPα1); SIRPα V1: DLN
Experiment: BLI Octet, antigen-Fc on biosensor;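 for koff: antigen captured on the biosensor tip and then immersed in solutions of the test antibodies, which act as the analyte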

| Kd | koff | kon | Binder |
| --- | --- | --- | --- |
| 0.2 nM |  |  | B5 |
| 0.45 nM |  |  | B6 |
| 0.15 nM | 0.000271 s⁻¹ | 1.84e+06 M⁻¹ s⁻¹ | B1 |
| 0.165 nM |  |  | B7 |
| 0.714 nM | 0.000757 s⁻¹ | 1.06e+06 M⁻¹ s⁻¹ | B2 |
| 1.65 nM | 0.00205 s⁻¹ | 1.24e+06 M⁻¹ s⁻¹ | B3 |

Target: T4, human SIRPβ-Fc (human)
T4 construct: a signal peptide may be part of the entry
Experiment: BLI Octet, antigen-Fc on biosensor;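 for koff: antigen captured on the biosensor tip and then immersed in solutions of the test antibodies, which act as the analyte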

| Kd | koff | kon | Binder |
| --- | --- | --- | --- |
| 4.61 nM |  |  | B8 |
| 0.22 nM |  |  | B5 |
| 0.89 nM |  |  | B9 |
| 1 nM |  |  | B6 |
| 2.56 nM | 0.00391 s⁻¹ | 1.53e+06 M⁻¹ s⁻¹ | B1 |
| 0.15 nM |  |  | B7 |
| 2.79 nM | 0.00284 s⁻¹ | 1.02e+06 M⁻¹ s⁻¹ | B2 |
| 4.52 nM | 0.00544 s⁻¹ | 1.21e+06 M⁻¹ s⁻¹ | B3 |

Target: T5, human SIRPα v2-Fc (SIRPα2 extracellular domain fused to human IGHG1_Fc) (human, UniProt P78324 31-373; P0DOX5 223-449 = IgG part)
T5 construct: as m38; also called V2 (e.g. SIRPα2); SIRPα V2:ESE
Experiment: BLI Octet, antigen-Fc on biosensor;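 for koff: antigen captured on the biosensor tip and then immersed in solutions of the test antibodies, which act as the analyte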

| Kd | binding result | koff | kon | Binder |
| --- | --- | --- | --- | --- |
| 44.2 nM |  |  |  | B8 |
|  | no binding |  |  | B10 |
| 10.7 nM |  |  |  | B9 |
| 18.2 nM |  |  |  | B6 |
| 13.2 nM |  | 0.00956 s⁻¹ | 730000 M⁻¹ s⁻¹ | B1 |
| 27.5 nM |  |  |  | B7 |
| 23 nM |  | 0.0185 s⁻¹ | 810000 M⁻¹ s⁻¹ | B2 |
| 17.2 nM |  | 0.0172 s⁻¹ | 1e+06 M⁻¹ s⁻¹ | B3 |
|  | no binding |  |  | B4 |

Target: T6, human SIRPα v4-Fc (SIRPα4 extracellular domain fused to human IGHG1_Fc) (human, UniProt P78324 31-373; P0DOX5 223-449 = IgG part)
T6 construct: as m38; also called V4 (e.g. SIRPα4)
Experiment: BLI Octet, antigen-Fc on biosensor

| Kd | koff | kon | Binder |
| --- | --- | --- | --- |
| 0.95 nM | 0.00165 s⁻¹ | 1.74e+06 M⁻¹ s⁻¹ | B1 |
| 7.69 nM | 0.00777 s⁻¹ | 1.01e+06 M⁻¹ s⁻¹ | B2 |

Target: T7, cyno SIRPα-Fc (cynomolgus)
T7 construct: a signal peptide may be part of the entry
Experiment: BLI Octet, antigen-Fc on biosensor

| Kd | koff | kon | Binder |
| --- | --- | --- | --- |
| 7.95 nM |  |  | B5 |
| 19.3 nM |  |  | B9 |
| 18 nM |  |  | B6 |
| 4.59 nM | 0.00546 s⁻¹ | 1.19e+06 M⁻¹ s⁻¹ | B1 |
| 18.8 nM | 0.0212 s⁻¹ | 1.13e+06 M⁻¹ s⁻¹ | B2 |
| 14.9 nM | 0.0197 s⁻¹ | 1.32e+06 M⁻¹ s⁻¹ | B3 |

Target: T8, human SIRPα v5-Fc (SIRPα5 extracellular domain fused to human IGHG1_Fc) (human, UniProt P78324 31-373; P0DOX5 223-449 = IgG part)
T8 construct: as m38; also called V5 (e.g. SIRPα5)
Experiment: BLI Octet, antigen-Fc on biosensor

| Kd | koff | kon | Binder |
| --- | --- | --- | --- |
| 0.66 nM | 0.00143 s⁻¹ | 2.17e+06 M⁻¹ s⁻¹ | B1 |
| 4.75 nM | 0.00462 s⁻¹ | 970000 M⁻¹ s⁻¹ | B2 |
| 7.73 nM | 0.00892 s⁻¹ | 1.16e+06 M⁻¹ s⁻¹ | B3 |

Target: T9, mouse SIRPα-Fc (mouse)
T9 construct: a signal peptide may be part of the entry; also called Ms; Ms SIRPα-Fc
Experiment: BLI Octet, antigen-Fc on biosensor

T9 sequence (chain, as listed by the source limits assumed): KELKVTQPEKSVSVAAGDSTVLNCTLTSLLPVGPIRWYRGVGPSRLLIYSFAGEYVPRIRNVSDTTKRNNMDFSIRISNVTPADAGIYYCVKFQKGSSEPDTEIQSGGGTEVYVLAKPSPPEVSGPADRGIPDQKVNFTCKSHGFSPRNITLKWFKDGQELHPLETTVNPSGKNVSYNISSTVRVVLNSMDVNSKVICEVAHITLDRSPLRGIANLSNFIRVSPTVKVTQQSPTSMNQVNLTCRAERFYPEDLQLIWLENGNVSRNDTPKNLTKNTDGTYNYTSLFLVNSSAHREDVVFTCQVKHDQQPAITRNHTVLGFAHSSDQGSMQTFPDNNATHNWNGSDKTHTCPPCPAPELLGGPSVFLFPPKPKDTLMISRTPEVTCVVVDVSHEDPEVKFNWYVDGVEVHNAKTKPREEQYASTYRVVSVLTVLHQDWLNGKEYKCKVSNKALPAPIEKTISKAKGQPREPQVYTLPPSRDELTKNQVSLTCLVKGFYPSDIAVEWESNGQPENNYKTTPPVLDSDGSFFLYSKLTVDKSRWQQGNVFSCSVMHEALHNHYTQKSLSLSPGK

| binding result | Kd | Binder |
| --- | --- | --- |
| no binding |  | B10 |
|  | 12.6 nM | B5 |
|  | 72.8 nM | B6 |
|  | 7.51 nM | B7 |
| no binding |  | B2 |
| no binding |  | B3 |
| no binding |  | B4 |

Target: T10, human SIRPα v6-Fc (SIRPα6 extracellular domain fused to human IGHG1_Fc) (human, UniProt P78324 31-373; P0DOX5 223-449 = IgG part)
T10 construct: as m38; also called V6 (e.g. SIRPα6)
Experiment: BLI Octet, antigen-Fc on biosensor

| Kd | binding result | koff | kon | Binder |
| --- | --- | --- | --- | --- |
| 54.9 nM |  |  |  | B8 |
|  | no binding |  |  | B10 |
| 11.9 nM |  |  |  | B9 |
| 12.2 nM |  | 0.0111 s⁻¹ | 907000 M⁻¹ s⁻¹ | B1 |
| 1.56 nM |  | 0.00182 s⁻¹ | 1.17e+06 M⁻¹ s⁻¹ | B2 |
| 2.71 nM |  | 0.00364 s⁻¹ | 1.35e+06 M⁻¹ s⁻¹ | B3 |

Target: T11, human SIRPγ-Fc (human)
T11 construct: a signal peptide may be part of the entry
Experiment: BLI Octet, antigen-Fc on biosensor

| Kd | koff | kon | Binder |
| --- | --- | --- | --- |
| 1.43 nM |  |  | B8 |
| 8.36 nM |  |  | B10 |
| 0.118 nM |  |  | B5 |
| 0.14 nM |  |  | B9 |
| 0.144 nM |  |  | B6 |
| 0.1 nM | 0.0002 s⁻¹ | 1.94e+06 M⁻¹ s⁻¹ | B1 |
| 0.154 nM |  |  | B7 |
| 1.37 nM | 0.00161 s⁻¹ | 1.17e+06 M⁻¹ s⁻¹ | B2 |
| 4.12 nM | 0.00558 s⁻¹ | 1.35e+06 M⁻¹ s⁻¹ | B3 |

Target: T1, cynomolgus SIRPα on cells
Experiment: cell binding, Cyno SIRPα-CHO-K1 cells, 100 nM antibody

| fold increase over background (100 nM) | Binder |
| --- | --- |
| 2390 fold | B1 |
| 2300 fold | B2 |
| 1020 fold | B4 |

Target: T9, mouse SIRPα-Fc
Experiment: BLI Octet, antigen-Fc on biosensor
Remark: another data set of the same source

| Kd | Binder |
| --- | --- |
| 2.2 nM | B11 |
| 0.39 nM | B12 |
| 1.02 nM | B13 |

Target: T12, human SIRPα on cells (human, UniProt P78324 31-504)
T12 construct: whole, on cells; also called human SIRPα-CHO; Hu SIRPα-CHO-K1
Experiment: cell binding, Hu SIRPα-CHO-K1 cells, 100 nM antibody

| fold increase over background (100 nM) | Binder |
| --- | --- |
| 2100 fold | B1 |
| 2650 fold | B2 |
| 1310 fold | B4 |
